Here are results for 1 molecule from US20250249118A1 (Eli Lilly, published 2025).

In one test the target is T1, cynomolgus TfR ECD (cynomolgus).
T1 chain: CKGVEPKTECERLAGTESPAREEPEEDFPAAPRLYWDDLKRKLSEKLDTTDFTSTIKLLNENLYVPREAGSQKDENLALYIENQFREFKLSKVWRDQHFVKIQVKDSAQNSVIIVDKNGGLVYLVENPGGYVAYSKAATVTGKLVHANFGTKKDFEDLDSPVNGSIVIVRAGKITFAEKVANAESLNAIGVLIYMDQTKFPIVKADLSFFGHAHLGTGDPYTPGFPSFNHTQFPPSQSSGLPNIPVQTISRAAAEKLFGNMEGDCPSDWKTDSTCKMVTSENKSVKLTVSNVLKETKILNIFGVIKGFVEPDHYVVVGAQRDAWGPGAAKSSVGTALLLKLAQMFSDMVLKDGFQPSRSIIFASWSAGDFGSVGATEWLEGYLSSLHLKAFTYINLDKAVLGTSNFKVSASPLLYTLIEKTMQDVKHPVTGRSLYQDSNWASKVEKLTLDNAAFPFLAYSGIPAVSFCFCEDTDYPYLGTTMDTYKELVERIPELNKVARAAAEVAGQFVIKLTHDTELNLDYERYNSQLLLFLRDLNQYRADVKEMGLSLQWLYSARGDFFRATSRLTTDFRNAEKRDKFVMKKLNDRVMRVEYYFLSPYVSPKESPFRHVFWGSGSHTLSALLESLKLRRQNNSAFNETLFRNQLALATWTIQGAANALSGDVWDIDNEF
Description: SPR, Biacore 8K, 37 C, TfR ECD amine-coupled on CM4 chip, TBP as analyte, 2-state model; SEM 2.565 nM, n = 3. The protocol: (§1) Target human and cynomologus TfR ECD's were immobilized on a CM4 chip (Cytiva P/N 29104989) using standard NHS-EDC amine coupling. The TfR binding proteins were prepared at a final concentration of 0.3, 0.1, 0.033, 0.01, 0.0033, 0.001, 0.00033, 0.0001 μM respectively by dilution of stock solution into running buffer.
(§2) Binding analysis was performed in a multi-cycle kinetics manner. Each analysis cycle consists of (1) injection of the lowest to highest concentration proteins over all Fc at 50 μL/min for 140 seconds followed by return to buffer flow for 400 seconds to monitor dissociation phase; (2) regeneration of chip surfaces with injection of 3M magnesium chloride, for 30 seconds at 100 μL/min over all cells; and (3) equilibration of chip surfaces with a 50 μL (30-sec) injection of HBS-EP+. Data were processed using standard double-referencing and fit to a 2-state binding model using Biacore 8K Evaluation software, to determine the association rate (kₒₙ, M⁻¹ s⁻¹ units), dissociation rate (koff, s⁻¹ units), and Rₘₐₓ (RU units). The equilibrium dissociation constant (KD) is calculated from the relationship KD=koff/kₒₙ, and is in molar units.

In a further test the target is T2, human TfR ECD (human, UniProt P02786 89-760).
T2 construct: extracellular domain; also called human Transferrin Receptor 1 extracellular domain
Description: SPR, Biacore 8K, 37 C, TfR ECD amine-coupled on CM4 chip, TBP as analyte, 2-state model; SEM 7.949 nM, n = 3. The protocol:
as §1, §2

B1: TBP4 (One Arm Heteromab 1, A378C) (antibody)
heavy: EVQLVESGGGLVKPGGSLRLSCVASGFTFSSYSMNWVRQAPGKGLEWVSSISSSSSYIYYADSVKGRFTISRDNAKNSLYLQMNSLRAEDTAVYYCARRHGYSNSDAFDNWGQGTLVTVSSASTKGPSVFPLAPCSRSTSESTAALGCLVKDYFPEPVTVSWNSGALTSGVHTFPAVLQSSGLYSLSSVVTVPSSSLGTKTYTCNVDHKPSNTKVDKRVESKYGPPCPPCPAPEAAGGPSVFLFPPKPKDTLMISRTPEVTCVVVDVSQEDPEVQFNWYVDGVEVHNAKTKPREEQFNSTYRVVSVLTVLHQDWLNGKEYKCKVSNKGLPSSIEKTISKAKGQPREPQVSTLPPSQEEMTKNQVSLMCLVYGFYPSDICVEWESNGQPENNYKTTPPVLDSDGSFFLYSVLTVDKSRWQEGNVFSCSVMHEALHNHYTQKSLSLSLG
light: DIQMTQSPSAMSASVGDRVTITCRASQGISHYLVWFQQKPGKVPKRLIYAASSLQSGVPSRFSGSGSGTEFTLTISSLQPEDFATYYCLQHNSYPWTFGQGTKVEIKRTVAAPSVFIFPPSDEQLKSGTASVVCLLNNFYPREAKVQWKVDNALQSGNSQESVTEQDSKDSTYSLSSTLTLSKADYEKHKVYACEVTHQGLSSPVTKSFNRGEC
Fc: ESKYGPPCPPCPAPEAAGGPSVFLFPPKPKDTLMISRTPEVTCVVVDVSQEDPEVQFNWYVDGVEVHNAKTKPREEQFNSTYRVVSVLTVLHQDWLNGKEYKCKVSNKGLPSSIEKTISKAKGQPREPQVYTLPPSQGDMTKNQVQLTCLVKGFYPSDICVEWESNGQPENNYKTTPPVLDSDGSFFLASRLTVDKSRWQEGNVFSCSVMHEALHNHYTQKSLSLSLG
notes: One-arm heteromab: HC1 with LC1, plus an Fc-only HC2; IgG4 PAA; also called OAH1; copies: 1 + 1 + 1
B1: the Kd came out at 300 nM in the test with cynomolgus TfR ECD and 154 nM with human TfR ECD.
